The target in test [1] is T1, human serum albumin (human, UniProt P02768 25-609).
T1 construct: Immobilised on SPR chips; also added in solution in the FcRn occupancy assays; also called HSA; humanSA
The experiment in a line: SPR Biacore, HSA coated, steady state, pH 5.5. (In general: In SPR one partner is held on a chip, and binding of the other changes the refractive index at the surface.)

Test [2] deals with T1, human serum albumin. The experiment in a line: SPR Biacore, HSA coated, kinetic fit, pH 5.5.
For test [3], the target named is T2, neonatal Fc receptor (FcRn), endogenous in U937 cells (human, UniProt P55899 24-365; P61769 21-119).
T2 construct: whole, on cells; Free FcRn was stained intracellularly after fixation and permeabilisation
T2 sequence (P55899 24-365 limits assumed, chain 1 of 2): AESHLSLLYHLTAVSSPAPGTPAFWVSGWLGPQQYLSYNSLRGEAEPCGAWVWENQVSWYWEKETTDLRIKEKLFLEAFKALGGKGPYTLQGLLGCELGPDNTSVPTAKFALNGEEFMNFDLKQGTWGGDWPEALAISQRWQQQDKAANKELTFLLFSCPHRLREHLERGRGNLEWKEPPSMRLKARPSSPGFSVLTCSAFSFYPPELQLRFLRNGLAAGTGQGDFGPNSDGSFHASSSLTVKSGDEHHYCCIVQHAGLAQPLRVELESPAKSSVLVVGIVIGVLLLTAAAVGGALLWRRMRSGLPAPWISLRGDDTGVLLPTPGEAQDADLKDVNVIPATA
T2 sequence (P61769 21-119 limits assumed, chain 2 of 2): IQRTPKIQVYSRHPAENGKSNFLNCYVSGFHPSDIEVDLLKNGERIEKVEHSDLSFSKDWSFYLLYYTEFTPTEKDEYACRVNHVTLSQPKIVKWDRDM
The experiment in a line: FcRn occupancy, FACS, U937 cells, with albumin.
Description: Next, FcRn occupancy was tested using a cell-based FcRn occupancy assay in the presence or absence of albumin. […] Cells (HEK FcRn mut or U937) were plated in a 96-well microplate. Cells were incubated with test article for two hours, shaking at 37° C., pH 7.4 in FACS buffer. Plates were then transferred immediately on ice and cells were collected by centrifugation at 4° C. Cells stained for viability in FACS buffer at pH 6 and then fixed/permeabilized in permeabilization buffer at pH 6. […] Cells were analyzed by FACS, ensuring that they are kept on ice until immediately prior to analysis.

Test [4] addresses T1, human serum albumin. The experiment in a line: SPR Biacore, HSA coated, kinetic fit, pH 7.4.
Test [5] addresses T1, human serum albumin. The experiment in a line: SPR Biacore, HSA coated, steady state, pH 7.4.

B1: OA-Fc-ABDEG-Alb23 (Fc fusion)
chain: DKTHTCPPCPAPELLGGPSVFLFPPKPKDTLYITREPEVTCVVVDVSHEDPEVKFNWYVDGVEVHNAKTKPREEQYNSTYRVVSVLTVLHQDWLNGKEYKCKVSNKALPAPIEKTISKAKGQPREPQVYTLPPSRDELTKNQVSLWCLVKGFYPSDIAVEWESNGQPENNYKTTPPVLDSDGSFFLYSKLTVDKSRWQQGNVFSCSVMHEALKFHYTQKSLSLSPGGGGGSGGGGSGGGGSGGGGSEVQLLESGGGLVQPGGSLRLSCAASGFTFRSFGMSWVRQAPGKGPEWVSSISGSGSDTLYADSVKGRFTISRDNSKNTLYLQMNSLRPEDTAVYYCTIGGSLSRSSQGTLVTVSS
Fc: DKTHTCPPCPAPELLGGPSVFLFPPKPKDTLYITREPEVTCVVVDVSHEDPEVKFNWYVDGVEVHNAKTKPREEQYNSTYRVVSVLTVLHQDWLNGKEYKCKVSNKALPAPIEKTISKAKGQPREPQVYTLPPSRDELTKNQVSLSCAVKGFYPSDIAVEWESNGQPENNYKTTPPVLDSDGSFFLVSKLTVDKSRWQQGNVFSCSVMHEALKFHYTQKSLSLSPG
notes: also called one-armed Fc-ABDEG-Alb23; OA-Fc-ABDEG-Alb23 (parental)
Consider B1, for which the equilibrium dissociation constant (Kd) (in general, the free concentration of one partner at which half of the binding sites on the other are occupied at equilibrium, for simple one-to-one binding) in the test with human serum albumin [1] worked out at 32.7 nM. In the test with human serum albumin [2], this molecule yielded a Kd of 16.6 nM. Also, in test [3], the “% max occupancy” value was determined as 67.4% and the IC50 (in general, the concentration that gives 50% inhibition) was determined as 5.2 nM.

B2: OA-Fc-ABDEG-Alb23-S52A/G53A (Fc fusion)
chain: DKTHTCPPCPAPELLGGPSVFLFPPKPKDTLYITREPEVTCVVVDVSHEDPEVKFNWYVDGVEVHNAKTKPREEQYNSTYRVVSVLTVLHQDWLNGKEYKCKVSNKALPAPIEKTISKAKGQPREPQVYTLPPSRDELTKNQVSLWCLVKGFYPSDIAVEWESNGQPENNYKTTPPVLDSDGSFFLYSKLTVDKSRWQQGNVFSCSVMHEALKFHYTQKSLSLSPGGGGGSGGGGSGGGGSGGGGSEVQLLESGGGLVQPGGSLRLSCAASGFTFRSFGMSWVRQAPGKGPEWVSSIAASGSDTLYADSVKGRFTISRDNSKNTLYLQMNSLRPEDTAVYYCTIGGSLSRSSQGTLVTVSS
Fc: DKTHTCPPCPAPELLGGPSVFLFPPKPKDTLYITREPEVTCVVVDVSHEDPEVKFNWYVDGVEVHNAKTKPREEQYNSTYRVVSVLTVLHQDWLNGKEYKCKVSNKALPAPIEKTISKAKGQPREPQVYTLPPSRDELTKNQVSLSCAVKGFYPSDIAVEWESNGQPENNYKTTPPVLDSDGSFFLVSKLTVDKSRWQQGNVFSCSVMHEALKFHYTQKSLSLSPG
For the molecule B2, the Kd was 204 nM with human serum albumin [4], 65.9 nM with human serum albumin [1], 47.7 nM with human serum albumin [2] and 298 nM in the test with human serum albumin [5].

B3: OA-Fc-ABDEG-Alb23-S52A (Fc fusion)
chain: DKTHTCPPCPAPELLGGPSVFLFPPKPKDTLYITREPEVTCVVVDVSHEDPEVKFNWYVDGVEVHNAKTKPREEQYNSTYRVVSVLTVLHQDWLNGKEYKCKVSNKALPAPIEKTISKAKGQPREPQVYTLPPSRDELTKNQVSLWCLVKGFYPSDIAVEWESNGQPENNYKTTPPVLDSDGSFFLYSKLTVDKSRWQQGNVFSCSVMHEALKFHYTQKSLSLSPGGGGGSGGGGSGGGGSGGGGSEVQLLESGGGLVQPGGSLRLSCAASGFTFRSFGMSWVRQAPGKGPEWVSSIAGSGSDTLYADSVKGRFTISRDNSKNTLYLQMNSLRPEDTAVYYCTIGGSLSRSSQGTLVTVSS
Fc: DKTHTCPPCPAPELLGGPSVFLFPPKPKDTLYITREPEVTCVVVDVSHEDPEVKFNWYVDGVEVHNAKTKPREEQYNSTYRVVSVLTVLHQDWLNGKEYKCKVSNKALPAPIEKTISKAKGQPREPQVYTLPPSRDELTKNQVSLSCAVKGFYPSDIAVEWESNGQPENNYKTTPPVLDSDGSFFLVSKLTVDKSRWQQGNVFSCSVMHEALKFHYTQKSLSLSPG
For the molecule B3, the Kd with human serum albumin [4] is 167 nM; in the test with human serum albumin [1] it was 49.5 nM; with human serum albumin [2], 34.2 nM; in the test with human serum albumin [5], 27.3 nM.

B4: OA-Fc-ABDEG-Alb23-G33A/G53A (Fc fusion)
chain: DKTHTCPPCPAPELLGGPSVFLFPPKPKDTLYITREPEVTCVVVDVSHEDPEVKFNWYVDGVEVHNAKTKPREEQYNSTYRVVSVLTVLHQDWLNGKEYKCKVSNKALPAPIEKTISKAKGQPREPQVYTLPPSRDELTKNQVSLWCLVKGFYPSDIAVEWESNGQPENNYKTTPPVLDSDGSFFLYSKLTVDKSRWQQGNVFSCSVMHEALKFHYTQKSLSLSPGGGGGSGGGGSGGGGSGGGGSEVQLLESGGGLVQPGGSLRLSCAASGFTFRSFAMSWVRQAPGKGPEWVSSISASGSDTLYADSVKGRFTISRDNSKNTLYLQMNSLRPEDTAVYYCTIGGSLSRSSQGTLVTVSS
Fc: DKTHTCPPCPAPELLGGPSVFLFPPKPKDTLYITREPEVTCVVVDVSHEDPEVKFNWYVDGVEVHNAKTKPREEQYNSTYRVVSVLTVLHQDWLNGKEYKCKVSNKALPAPIEKTISKAKGQPREPQVYTLPPSRDELTKNQVSLSCAVKGFYPSDIAVEWESNGQPENNYKTTPPVLDSDGSFFLVSKLTVDKSRWQQGNVFSCSVMHEALKFHYTQKSLSLSPG
With B4, the Kd was determined as 499 nM in the test with human serum albumin [4], 135 nM with human serum albumin [1], 90.2 nM with human serum albumin [2] and 767 nM in the test with human serum albumin [5].

B5: OA-Fc-ABDEG-Alb23-S101A (Fc fusion)
chain: DKTHTCPPCPAPELLGGPSVFLFPPKPKDTLYITREPEVTCVVVDVSHEDPEVKFNWYVDGVEVHNAKTKPREEQYNSTYRVVSVLTVLHQDWLNGKEYKCKVSNKALPAPIEKTISKAKGQPREPQVYTLPPSRDELTKNQVSLWCLVKGFYPSDIAVEWESNGQPENNYKTTPPVLDSDGSFFLYSKLTVDKSRWQQGNVFSCSVMHEALKFHYTQKSLSLSPGGGGGSGGGGSGGGGSGGGGSEVQLLESGGGLVQPGGSLRLSCAASGFTFRSFGMSWVRQAPGKGPEWVSSISGSGSDTLYADSVKGRFTISRDNSKNTLYLQMNSLRPEDTAVYYCTIGGALSRSSQGTLVTVSS
Fc: DKTHTCPPCPAPELLGGPSVFLFPPKPKDTLYITREPEVTCVVVDVSHEDPEVKFNWYVDGVEVHNAKTKPREEQYNSTYRVVSVLTVLHQDWLNGKEYKCKVSNKALPAPIEKTISKAKGQPREPQVYTLPPSRDELTKNQVSLSCAVKGFYPSDIAVEWESNGQPENNYKTTPPVLDSDGSFFLVSKLTVDKSRWQQGNVFSCSVMHEALKFHYTQKSLSLSPG
Consider B5, for which the Kd was 255 nM with human serum albumin [4], 67.5 nM in the test with human serum albumin [1], 54.3 nM with human serum albumin [2] and 353 nM with human serum albumin [5].

B6: OA-Fc-ABDEG-Alb23-G33A (Fc fusion)
chain: DKTHTCPPCPAPELLGGPSVFLFPPKPKDTLYITREPEVTCVVVDVSHEDPEVKFNWYVDGVEVHNAKTKPREEQYNSTYRVVSVLTVLHQDWLNGKEYKCKVSNKALPAPIEKTISKAKGQPREPQVYTLPPSRDELTKNQVSLWCLVKGFYPSDIAVEWESNGQPENNYKTTPPVLDSDGSFFLYSKLTVDKSRWQQGNVFSCSVMHEALKFHYTQKSLSLSPGGGGGSGGGGSGGGGSGGGGSEVQLLESGGGLVQPGGSLRLSCAASGFTFRSFAMSWVRQAPGKGPEWVSSISGSGSDTLYADSVKGRFTISRDNSKNTLYLQMNSLRPEDTAVYYCTIGGSLSRSSQGTLVTVSS
Fc: DKTHTCPPCPAPELLGGPSVFLFPPKPKDTLYITREPEVTCVVVDVSHEDPEVKFNWYVDGVEVHNAKTKPREEQYNSTYRVVSVLTVLHQDWLNGKEYKCKVSNKALPAPIEKTISKAKGQPREPQVYTLPPSRDELTKNQVSLSCAVKGFYPSDIAVEWESNGQPENNYKTTPPVLDSDGSFFLVSKLTVDKSRWQQGNVFSCSVMHEALKFHYTQKSLSLSPG
On to B6, for which the Kd was 150 nM in the test with human serum albumin [4], 145 nM with human serum albumin [1], 124 nM with human serum albumin [2] and 863 nM in the test with human serum albumin [5].

B7: OA-Fc-ABDEG-Alb23-S52A/S101A (Fc fusion)
chain: DKTHTCPPCPAPELLGGPSVFLFPPKPKDTLYITREPEVTCVVVDVSHEDPEVKFNWYVDGVEVHNAKTKPREEQYNSTYRVVSVLTVLHQDWLNGKEYKCKVSNKALPAPIEKTISKAKGQPREPQVYTLPPSRDELTKNQVSLWCLVKGFYPSDIAVEWESNGQPENNYKTTPPVLDSDGSFFLYSKLTVDKSRWQQGNVFSCSVMHEALKFHYTQKSLSLSPGGGGGSGGGGSGGGGSGGGGSEVQLLESGGGLVQPGGSLRLSCAASGFTFRSFGMSWVRQAPGKGPEWVSSIAGSGSDTLYADSVKGRFTISRDNSKNTLYLQMNSLRPEDTAVYYCTIGGALSRSSQGTLVTVSS
Fc: DKTHTCPPCPAPELLGGPSVFLFPPKPKDTLYITREPEVTCVVVDVSHEDPEVKFNWYVDGVEVHNAKTKPREEQYNSTYRVVSVLTVLHQDWLNGKEYKCKVSNKALPAPIEKTISKAKGQPREPQVYTLPPSRDELTKNQVSLSCAVKGFYPSDIAVEWESNGQPENNYKTTPPVLDSDGSFFLVSKLTVDKSRWQQGNVFSCSVMHEALKFHYTQKSLSLSPG
Regarding B7, the Kd with human serum albumin [4] amounted to 501 nM; in the test with human serum albumin [1], 124 nM; with human serum albumin [2], 95.6 nM; in the test with human serum albumin [5], 579 nM.

B8: OA-Fc-ABDEG-Alb23-G53A (Fc fusion)
chain: DKTHTCPPCPAPELLGGPSVFLFPPKPKDTLYITREPEVTCVVVDVSHEDPEVKFNWYVDGVEVHNAKTKPREEQYNSTYRVVSVLTVLHQDWLNGKEYKCKVSNKALPAPIEKTISKAKGQPREPQVYTLPPSRDELTKNQVSLWCLVKGFYPSDIAVEWESNGQPENNYKTTPPVLDSDGSFFLYSKLTVDKSRWQQGNVFSCSVMHEALKFHYTQKSLSLSPGGGGGSGGGGSGGGGSGGGGSEVQLLESGGGLVQPGGSLRLSCAASGFTFRSFGMSWVRQAPGKGPEWVSSISASGSDTLYADSVKGRFTISRDNSKNTLYLQMNSLRPEDTAVYYCTIGGSLSRSSQGTLVTVSS
Fc: DKTHTCPPCPAPELLGGPSVFLFPPKPKDTLYITREPEVTCVVVDVSHEDPEVKFNWYVDGVEVHNAKTKPREEQYNSTYRVVSVLTVLHQDWLNGKEYKCKVSNKALPAPIEKTISKAKGQPREPQVYTLPPSRDELTKNQVSLSCAVKGFYPSDIAVEWESNGQPENNYKTTPPVLDSDGSFFLVSKLTVDKSRWQQGNVFSCSVMHEALKFHYTQKSLSLSPG
Take B8: the Kd is 78.8 nM with human serum albumin [4], 36.7 nM in the test with human serum albumin [1], 20.6 nM in the test with human serum albumin [2] and 158 nM with human serum albumin [5].

These data come from patent publication US20260152573A1 (ARGENX, published 2026).
